{"source": "paper PMC7168936", "substrate": "N[C@@H](COP(=O)(O)O)C(=O)O", "experiment": "purified protein, by the assay type", "conditions": "other: substrates of PSAT1, optimized conditions; pH 8.5", "data": [{"protein": "PSAT1 (Homo sapiens) (protein) MDAPRQVVNFGPGPAKLPHSVLLEIQKELLDYKGVGISVLEMSHRSSDFAKIINNTENLVRELLAVPDNYKVIFLQGGGCGQFSAVPLNLIGLKAGRCADYVVTGAWSAKAAEEAKKFGTINIVHPKLGSYTKIPDPSTWNLNPDASYVYYCANETVHGVEFDFIPDVKGAVLVCDMSSNFLSKPVDVSKFGVIFAGAQKNVGSAGVTVVIVRDDLLGFALRECPSVLEYKVQAGNSSLYNTPPCFSIYVMGLVLEWIKNNGGAAAMEKLSSIKSQTIYEIIDNSQGFYVCPVEPQNRSKMNIPFRIGNAKGDDALEKRFLDKALELNMLSLKGHRSVGGIRASLYNAVTIEDVQKLAAFMKKFLEMHQL", "values": [{"measurement": "Km", "value": "25.1 ± 5.3", "unit": "μM μM"}]}]}
